In patent US20060115482A1, “Modifications of histone proteins as indicators of cell proliferation and differentiation” (The Regents of the University of California, priority 2004, published 2006):
Positions count from the first letter of the chain named. Names may count otherwise.

B1: CTK: COOH-terminal kinase domain of Drosophila TAF1, amino acids 1496-2132 (protein)
chain: LFPVSAKKVPDYYRVVTKPMDLQTMREYIRQRRYTSREMFLEDLKQIVDNSLIYNGPQSAYTLAAQRMFSSCFELLAEREDKLMRLEKAINPLLDDDDQVALSFIFDKLHSQIKQLPESWPFLKPVNKKQVKDYYTVIKRPMDLETIGKNIEAHRYHSRAEYLADIELIATNCEQYNGSDTRYTKFSKKILEYAQTQLIEFSEHCGQLENNIAKTQERARENAPEFDEAWGNDDYNFDRGSRASSPGDDYIDVEGHGGHASSSNSIHRSMGAEAGSSHTAPAVRKPAPPGPGEVKRGRGRPRKQRDPVEEVKSQNPVKRGRGRPRKDSLASNMSHTQAYFLDEDLQCSTDDEDDDEEEDFQEVSEDENNAASILDQGERINAPADAMDGMFDPKNIKTEIDLEAHQMAEEPIGEDDSQQVAEAMVQLSGVGGYYAQQQQDESMDVDPNYDPSDFLAMHKQRQSLGEPSSLQGAFTNFLSHEQDDNGPYNPAEASTSAASGADLGMDASMAMQMAPEMPVNTMNNGMGIDDDLDISESDEEDDGSRVRIKKEVFDDGDYALQHQQMGQAASQSQIYMVDSSNEPTTLDYQQPPQLDFQQVQEMEQLQHQVMPPMQSEQLQQQQTPQGDNDYAWTF
B2: CTK(D1538A): CTK with catalytically important aspartic acid of the S/T-kinase motif mutated to alanine (protein)
chain: B1 chain with D43A

Columns and labels:
[1] = system: H2B-S33; assay: In vitro kinase assay (γ32P-ATP, SDS-PAGE, autoradiography, scintillation counting); type: biochemical, Drosophila; details: for H2B phosphorylation in vitro (qualitative): autoradiography; for Turnover values for phosphorylation of H2B-S33: 3 μg enzyme
Method: Kinase reactions were programmed with 1 μg RAP74, 1 μg recombinant histone, 2 μg polynucleosomes, 2 μg histone octamers, or 300 ng histone peptide, and contained 400 ng endogenous TFIID or 250 ng recombinant TAF1 derivatives and 0.25 μCi γ^32P-ATP. Reactions were performed in 20 μl kinase buffer (25 mM Hepes (pH 7.6), 10% glycerol, and 400 mM NaCl) for 25 min at 25° C. Reaction products were analyzed by SDS-PAGE using 8%—(for recombinant proteins), 15%—(for histones), or 18% (for peptides) gels. After electrophoresis, gels were dried and exposed to X-ray film.
To quantify kinase reactions, reactions products were separated by SDS-PAGE and detected by coomassie blue staining. Radiolabeled H2B was detected by autoradiography, excised from the gel, and analyzed by scintillation counting.
To measure the kinase activity of TFIID, TAF1, CTK, and mutant CTK-derivatives, reaction products of in vitro kinase assays were separated by SDS-PAGE and stained with coomassie blue. Radiolabeled H2B, H2BT and controls were excised from the gel and incorporation of radioactivity was determined by scintillation counting. Turnover values for phosphorylation of H2B-S33 were determined by measuring incorporation of radiolabeled phosphate groups into H2B in the presence of 3 μg TAF1, TFIID, or CTK-derivatives and 3 μg H2B or 12 μg nucleosomes. The turnover values were: TFIID (nucleosomes: 3.3/sec; H2B: 2.6/sec); TAF1: (nucleosomes: 2.5/sec; H2B: 2.5/sec); CTK: (nucleosomes: 2.6/sec; H2B: 4.4/sec).

[2] = biological target: T1, acetylated H4 (Homo sapiens, UniProt P62805); assay: Acetylated-lysine interaction assay; type: binding; details: H4 peptide acetylated at lysine 5, 8, 12, 16
T1 construct: H4 peptide (amino acids 1-20); host or cells: H4 peptide made by chemical synthesis; Flag-CTK proteins made in Sf9 cells with baculovirus
Method: FIG. 6. (A) Silver stained gel corresponding to the autoradiograms shown inn FIG. 2B) of in vitro kinase assays containing γ^32P-ATP, native nucleosomes (top) or recombinant H2B (bottom), and TFIID, TAF1, or TAF1 derivatives (B) CTK(D1548A) binds acetylated histone H4. Western blot of protein:protein interaction assays. Anti-Flag antibody agarose beads loaded with recombinant Flag-CTK, Flag-CTK(D1548), or FLAG-110 (beads) were incubated with H4 peptide (amino acids 1-20) or H4 peptide [acetyl(H4)] acetylated at lysine 5, 8, 12, 16. Precipitated peptides were separated by SDS-PAGE, electrophoretically transferred onto nitrocellulose, and detected using antibodies to H4 (top) and acetylated H4 (bottom). (C) The CTK phosphorylates serine residues in H2BT. A schematic representation of H2BT is shown on top with highlighted positions of threonines (T) and serines (S). […]
The interaction of CTK and CTK(D1548A) with unmodified and acetylated H4 peptides was monitored as described (14, 15). […]

Row | Molecule | H2B phosphorylation in vitro (qualitative) [1] | Turnover values for phosphorylation of H2B-S33 ([1]; substrate 3 μg H2B) [s⁻¹] | Turnover values for phosphorylation of H2B-S33 ([1]; substrate 12 μg nucleosomes) [s⁻¹] | binding to acetylated H4 in vitro [2]
1 | B1 | strongly phosphorylated H2B | 4.4 | 2.6 | –
2 | B2 | weak autophosphorylation and H2B trans-phosporylation activities | – | – | retains the ability to bind acetylated H4 in vitro
